Assay results taken from article PMC9606039 (2022).

B1: LY-CoV1404 Fab (Fab, V domains shown)
VH: QITLKESGPTLVKPTQTLTLTCTFSGFSLSISGVGVGWLRQPPGKALEWLALIYWDDDKRYSPSLKSRLTISKDTSKNQVVLKMTNIDPVDTATYYCAHHSISTIFDHWGQGTLVTVSS
VL: QSALTQPASVSGSPGQSITISCTATSSDVGDYNYVSWYQQHPGKAPKLMIFEVSDRPSGISNRFSGSKSGNTASLTISGLQAEDEADYYCSSYTTSSAVFGGGTKLTVL
B2: 2-7 Fab (Fab, V domains shown)
VH: QITLKESGPTLVKPTQTLTLTCTFSGFSLSTSGVGVGWIRQPPGKALEWLALIYWDDDKRYSPSLKSRLTITKDTSKNQVVLTMTNMDPVDTATYYCAHHKIERIFDYWGQGTLVTVSS
VL: QSALAQPASVSGSPGQSITISCTGTSSDVGAYNYVSWYQQHPGKAPKLMIYDVSKRPSGVSNRFSGSKSGNTASLTISGLQAEDEADYYCSSYTTSSTVFGGGTKLTVL
B3: 2-7 D54N Fab (Fab, V domains shown)
VH: QITLKESGPTLVKPTQTLTLTCTFSGFSLSTSGVGVGWIRQPPGKALEWLALIYWNDDKRYSPSLKSRLTITKDTSKNQVVLTMTNMDPVDTATYYCAHHKIERIFDYWGQGTLVTVSS
VL: QSALAQPASVSGSPGQSITISCTGTSSDVGAYNYVSWYQQHPGKAPKLMIYDVSKRPSGVSNRFSGSKSGNTASLTISGLQAEDEADYYCSSYTTSSTVFGGGTKLTVL

biological target: receptor-binding domain (RBD) (residues 319-541) of the SARS-CoV-2 spike (S) protein (SARS-CoV-2, UniProt P0DTC2 319-541); experiment: BLI

Row | Binder | Kd [nM]
1 | B1 | 1.6
2 | B2 | 38
3 | B3 | > 5000
